T1: recombinant human cytokine interleukin-8 (Promocell) (human, UniProt P10145 23-99, biotin groups on lysine residues (NHS-SS-Biotin) in the ELISA; digoxigenin groups (DIG-NHS) in the colony screening)
T1 construct: also called IL-8
T1 sequence: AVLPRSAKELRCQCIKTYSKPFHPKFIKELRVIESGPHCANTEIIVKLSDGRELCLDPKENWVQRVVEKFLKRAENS

B1: hNGAL mutein RFY-E with C-terminal Strep-Tag II (phNGAL15 derivative, purified) (designed binder, not shown: small tags and cut ends)
chain: QDSTSDLIPAPPLSKVPLQQNFQDNQFQGKWYLVGLAGNGITRVDTLPSRMYATIYELKEDKSYNVTSVPFMGKKCKYKIRTFVPGSQPGEFTLGNIKSYMSNTSFLVRVVSTNYNQHAMVFFKQVHKNPESFKITIYGRTKELPSELKENFIRFSKSLGLPENHIVFPVPIDQCIDG
B2: biotinylated synthetic thrombospondin peptide from the cell binding domain of human Thrombospondin1 (peptide)
peptide: RFYVVMWKXXK
modifications: Aca-Aca (amino caproic acid) after Lys8; C-terminal Lys-Biotin
notes: Immobilised through its C-terminal biotin on avidin (ELISA) or streptavidin chip (SPR)
B3: hNGAL mutein RFY-C with C-terminal Strep-Tag II (phNGAL15 derivative, purified) (designed binder, not shown: small tags and cut ends)
chain: QDSTSDLIPAPPLSKVPLQQNFQDNQFQGKWYLVGLAGNGIHRLDNVPPNMYATIYELKEDKSYNVTSVDFLMKKCPYFIRTFVPGSQPGEFTLGNIKSYPFLTSFLVRVVSTNYNQHAMVFFKNVPRNYEEFKITIYGRTKELPSELKENFIRFSKSLGLPENHIVFPVPIDQCIDG
B4: hNGAL mutein N4 with C-terminal Strep-Tag II (phNGAL15 derivative, purified) (designed binder, not shown: small tags and cut ends)
chain: QDSTSDLIPAPPLSKVPLQQNFQDNQFQGKWYLVGLAGNDIYRADSLPGLMYATIYELKEDKSYNVTSVVFYDKKCVYSIRTFVPGSQPGEFTLGNIKSYEAVTSFLVRVVSTNYNQHAMVFFKDVRPNSEEFKITIYGRTKELPSELKENFIRFSKSLGLPENHIVFPVPIDQCIDG

Assays:
[1] = molecular target: streptavidin of the streptavidin-coated sensor chip SA (BIACORE) (UniProt P22629 37-163, limits assumed); experiment: SPR, BIAcore X, streptavidin-coated sensor chip SA
Chain of streptavidin of the streptavidin-coated sensor chip SA (BIACORE) (P22629 37-163 limits assumed): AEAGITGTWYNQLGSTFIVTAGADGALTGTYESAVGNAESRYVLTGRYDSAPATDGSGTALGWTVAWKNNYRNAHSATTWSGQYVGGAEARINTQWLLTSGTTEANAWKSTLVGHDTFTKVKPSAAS

[2] = molecular target: B2; experiment: SPR, BIAcore X, steady state, biotinylated peptide on sensor chip SA
Procedure: The binding affinity of the hNGAL muteins to the thrombospondin peptide SEQ ID NO: 18 was determined by surface plasmon resonance (SPR) using the BIAcore X system (BIACORE). First 35 μl of the biotinylated thrombospondin peptide at a concentration of 1 μg/ml (prepared by mixing 1 μl of a 200 μg/ml peptide solution in DMF with 199 μl HBS buffer containing 150 mM NaCl, 10 mM HEPES pH 7.4, 3 mM EDTA) was immobilized to the surface of one flow channel of a streptavidin-coated sensor chip SA (BIACORE) according to the instructions of the manufacturer, resulting in an amount of ca. 400 response units (RU). Binding curves of the hNGAL muteins were then measured by applying 35 μl of each purified muteins from Example 9 in HBS buffer at concentrations between 500 nM and 25 nM using HBS-EP (HBS containing 0.005% Surfactant P20) as a running buffer and a continuous flowrate of 5 μl/min.
Steady state resonance values were measured at the end of the injection phase for the channel with the immobilized thrombospondin peptide for each protein concentration applied. Only negligible buffer effects were detected in the second channel of the sensor chip, which served as a control. These values were directly plotted against the concentration of the hNGAL mutein. […]

[3] = molecular target: B2; experiment: ELISA, apparent KD, biotinylated peptide on avidin-coated plate, anti-strepII-antibody-HRP
Procedure: For the detection of binding in an ELISA (Enzyme-linked Immunosorbent Assay) the wells of a microtiter plate (Maxisorb, Nunc) were filled each with 50 μl of a 50 μg/ml solution of Avidin (Fluka) in PBS and were incubated over night at room temperature (RT). After washing three times with PBST, 50 μl of a 1 μM solution of the biotinylated thrombospondin peptide SEQ ID NO:18 in PBST were filled into the wells and the peptide was immobilized via complex formation between biotin and the preadsorbed avidin. After incubation for one hour the solution was removed and the wells of the microtiter plate were washed three times with PBST. In order to saturate unspecific binding sites, the wells were filled with 100 μl of 4% w/v BSA in PBST and incubated for one hour at RT, followed by three times washing with PBST.
Then a dilution series of the muteins from Example 9 was prepared, starting from 100 nM concentration, and followed by 1 hour incubation at RT. As a control for unspecific binding to avidin, a similar dilution series of hNGAL and its muteins was applied to wells where the thrombospondin peptide had been omitted. After washing three times with PBST, Anti-strepII-antibody-HRP-conjugate (IBA), diluted 1:8000 with PBST, was applied to the wells. Incubation was performed for 1 hour at RT and followed by washing three times with PBST and twice with PBS. […]

[4] = molecular target: T2, original hNGAL with C-terminal Strep-Tag II (encoded by phNGAL15, purified) (human, UniProt P80188 21-198); experiment: ELISA: biotinylated thrombospondin peptide on avidin-coated wells, hNGAL titrated, anti-strepII-antibody-HRP detection, A450
T2 construct: mature
Procedure: For the detection of binding in an ELISA (Enzyme-linked Immunosorbent Assay) the wells of a microtiter plate (Maxisorb, Nunc) were filled each with 50 μl of a 50 μg/ml solution of Avidin (Fluka) in PBS and were incubated over night at room temperature (RT). After washing three times with PBST, 50 μl of a 1 μM solution of the biotinylated thrombospondin peptide SEQ ID NO:18 in PBST were filled into the wells and the peptide was immobilized via complex formation between biotin and the preadsorbed avidin. After incubation for one hour the solution was removed and the wells of the microtiter plate were washed three times with PBST. In order to saturate unspecific binding sites, the wells were filled with 100 μl of 4% w/v BSA in PBST and incubated for one hour at RT, followed by three times washing with PBST. […]
(§1) Detection of bound hNGAL muteins was accomplished using 3,3′,5,5′-tetramethylbenzidine and H₂O₂ as substrates for horseradish-peroxidase. For this purpose, 100 μl of a ready-to-use HRP-substrate solution (Biochem Immunosystems) was filled into the wells and the colour development was stopped after a few minutes by adding 100 μl of 0.3 M sulphuric acid. Product formation was measured via the endpoint absorption at 450 nm in a SpectraMax 250 photometer (Molecular Devices).

[5] = molecular target: T1, recombinant human cytokine …; experiment: ELISA, apparent KD, biotinylated IL-8 on avidin-coated plate, anti-strepII-antibody-HRP
Procedure: (§2) For the detection of binding in an ELISA experiment two rows (12 wells each) of a 96 microtiter plate (Maxisorb, Nunc) were coated with 50 μl of a 50 μg/ml solution of Avidin (Fluka) in PBS overnight at 4° C. After washing three times with PBST, one row was treated with 50 μl/well of a 1 μM solution of biotinylated IL-8 in PBST, whereas the second row was incubated with PBST as a control. After 1 hour at RT, all wells were washed three times with PBST and unspecific binding sites were saturated with 100 μl of 4% w/v skimmed milk powder in PBST for 1 hour at RT.
(§3) As a control for unspecific binding to avidin, a similar dilution series of the mutein N4 was applied to wells where the IL-8 had been omitted. Complex formation was allowed for 1 hour at RT, followed by three washes with PBST and incubation at RT for 1 hour with anti-strepII-antibody-HRP-conjugate (IBA) diluted 1:8000 in PBST.
as §1, with “mutein N4” for “hNGAL muteins”, “purpose, all wells were filled with” for “purpose,”, “Immunosystems). The” for “Immunosystems) was filled into the wells and the”, “via” for “via the”

Avidin (Fluka) = Avidin (Fluka) (UniProt P02701 25-152); experiment: ELISA control without IL-8: avidin-coated wells only, mutein N4 titrated, anti-strepII-antibody-HRP detection, OD450
Chain of Avidin (Fluka) (P02701 25-152 limits assumed): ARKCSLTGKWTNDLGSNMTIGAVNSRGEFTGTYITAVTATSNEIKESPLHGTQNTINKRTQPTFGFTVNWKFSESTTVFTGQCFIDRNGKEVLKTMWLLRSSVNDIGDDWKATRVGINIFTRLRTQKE
Procedure: as §2, §3
as §1, with “mutein N4” for “hNGAL muteins”, “purpose, all wells were filled with” for “purpose,”, “Immunosystems). The” for “Immunosystems) was filled into the wells and the”, “via” for “via the”

Binder | binding result [1] | Kd [2] | Kd [3] | binding result [4] | Kd [5] | binding result (Avidin (Fluka))
B1 | no binding | 107 nM | 8.2 nM | – | – | –
B2 | – | – | – | no binding (tested: 200 nM) | – | –
B3 | no binding | 106 nM | 4.6 nM | – | – | –
B4 | – | – | – | – | 300 nM | no binding (tested: 1000 nM)
